Experimental findings from the domain aggregation screens of Martell et al. (2025) are described below.
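Also: 20 min heating vs room temperature control held 20 min.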

The series is described as follows: soluble fraction after stress (log2 fold change); higher = more stays soluble; pooled small domains, quantitative proteomics. Conditions: stress: 75 degC.
Regarding “HMQGYELKMYVTPDTKYSVAVYDAKNEMVSYTMGFSAKAPFGQEGEVLETVKLEFDKLAVGNYELKYWI”, the “soluble fraction (log2)” value is 0.258. On to “HMQHYQFEVDEASSKKRLDVFLSENLPEISRSRLKKLIDEKRVTVNEMSRPAGYKVRVKEKIEFHIPPL”, for which the “soluble fraction (log2)” value was -0.718. The same measure for “HMQIAEAESLGQRLLQQSINNIVGRDEAITEERLNRVLSQYSLTGRDELMAQIGLGNRNSSLVAKAMYDI”: -0.0772; for “HMQIKEVDYGTFISMTEDGEIGRVEIQQQENTILFTDEDETAVYKTAMVEDDQLTQRLYDAGISFYGEE”: 0.0917; for “HMQILVEGVEANQRLDLFLRARLTEFSRSRIQGLVKNGNVLVNGNIARQAYLVQVGDKIELDVPEPVA”: -0.603. With “HMQIMVVDEADRMLDMGFIPDIERIFQLTPFTRQTLFFSATMAPEIERITDTFLHSPERIEVAR”, the “soluble fraction (log2)” value is -0.255. For the sequence “HMQISDDGFILKIINEVVAENPKSISDYISGKEAAVGFLVGQIMKKTRGKANPKLVNEMLITELAKLKN”, the “soluble fraction (log2)” value was 0.0585.

As to “HMQISDESSIAKIADEVISEFPSQVSEFRSGKEKVLQFLIGQVMKKTKGKANPQITAKILREKLS”, the “soluble fraction (log2)” value turned out to be 0.00566. Take “HMQISDSASVKTVVAEAIAANPKAVADFMNGKDTATRYLVGQVMKITKGQAKPELVNQLVLESLAELKEK”: the “soluble fraction (log2)” value amounted to 0.361. In the case of “HMQISDSGELEKIVLQVIEENPKPAEQVRSGNEKAIGALVGGVMKATQGRADGGEVNRLLRQHLGL”, the “soluble fraction (log2)” value came out at 0.248. Next, “HMQISDVSLIAKVIDDVIDNNVKSVSDYLEGNLNVLRFLVGQVMKETKGKANPQKATELLQEKLESLNN”: -0.896; “HMQISLDTKLINLEFSVRANNVFRENQIFTLRDLTSHSKEDLMLMTNFGKTTLYEVNKKLEEHQLKLSQ”: -2.43; “HMQISNEEELEKIIENVIESNPEKVKAYQSGKSGLIGFFMGQVMKESGGQANPNLVNQILKGKL”: 0.109. Regarding “HMQIYSQEIYDAQKVLKELGLYTSDLDGLNGPGTKRALRNFQSKSGLNADGVLGPLTKSALDKGEESYITV”, the “soluble fraction (log2)” value was -0.0827. The same measure for “HMQKADFDYGDYVDLGLAMGRQSRQLREAVGIKLGIGYANSKRFYQRLQTFGISLAELKQAVEEAENDQQN”: -1.12; for “HMQKEMDIVLQINGKMRSNLKVSSTANDDEIIKTAIESDAYKKFSLGLRIQKTIIVPNRLINIVLEK”: -3.24. The same measure for “HMQKIYTIARGDTLSHIVAGTLKQQGIAYTTGELYRLVNVVAQYNDILNPNRIYTGHQLDLTPLYSED”: -0.15; for “HMQKLLGPFEDFVKIKLDKYPDTKAAQMHDWLKEHYPDFPEVTPKTVYNFVMYVRQRHNIPIPD”: -0.359. The same measure for “HMQKTVLAASVYERMKERIMDQYYPPGERLNIDALAIDLAVSPTPIREALARLAAERLITFEAYKGYRVSP”: -3.38; for “HMQLEPLVTSVIPVNFAKASDISGTIKGKEVGLLSERGNITAENRTNVLIVKDIRKSVDEINAMVKRLD”: 0.0272; for “HMQLFKFKNAMMELAKNKNITLDTAEKAIGLEAGFTELVARGVKELALSDVIKISKYFNTTMDSVLD”: -1.44.

With “HMQLPFTPREHEITQLLSRGLSNRQIAEALSLSVRTVEGHIYQASTKLGISSRSELAVLVGQFA”, the “soluble fraction (log2)” value is -1.94.

“HMQLSQLLQPFDINAFKGHPLYTEENVKMFNDYTNRVKEWTKGTPYEQYWVTKEGQPTMLAWDSFKK”: the “soluble fraction (log2)” value was -1.28. In the case of “HMQLTQEAIENLFKITTAKKFREELEKLVVTDSEKKAFAYFTVYHPKLKELPFAILKSVENYTGISI”, the “soluble fraction (log2)” value is -0.963.

On to “HMQLVPGIGRLSARELEVFTLIGRGLGTSEIGKKLGVSAYTVQTHRNHIKEKLNLPNAAAITYWAIQWAHG”, for which the “soluble fraction (log2)” value is -2.27. Next, “HMQMEDTDALLQVAKEVVAENQDTVEAYLGGREKAFASLIGAAMKKTRGKANPKVIRQLILDLIQ”: 0.564; “HMQMEISQRIKLERQTLKWTQEELADKIFVSKRTISNWETGRTVPDIESVLRLAKVFHVSLEDLLL”: -4.46. In the case of “HMQMEYEKAIAYILDKIKSGELSIGSKLPAERVIADTLHIGRNSTREALSILHGMGMVDRVHGSGNYISEH”, the “soluble fraction (log2)” value is -0.752. Next, “HMQMLQDPFLNALRKEHVPVSIYLVNGIKLQGQVESFDQYVVLLRNTSVTQMVYKHAISTIVPARAVSL”: -0.748. In the case of “HMQMRKENKILVTDIGEIDEVKVIFDDDNKPYLYSYNGEDEFYRPDETYKFFDNKEQAEEYVREN”, the “soluble fraction (log2)” value was found to be 0.0692. Take “HMQMSPREKMIYSFIESHPGTKSGEIAEKLNVPLPTVKRILSEMVSGNFIAKHGSGIGTNYSTEK”: the “soluble fraction (log2)” value was found to be 0.335. For “HMQMSWDAVKARLQDIVNNEDKTKPFNDEMLASKLKEQGIEIARRTVVKYRQQLGIPAARLRKK”, the “soluble fraction (log2)” value was -0.752.

For “HMQNAETPDVAAEFRTWTSADGQFQVIAKLVKLDGESVHLERQDDGRQIAVPLGKLSSEDRLFLRGVRP”, the “soluble fraction (log2)” value is -0.184. The same measure for “HMQNEQIAFSKFLQEVDSGRVVQVEIQGNNIKGILSDGSKFYTYSPNYPELVGKLSEKGVNIVASPVE”: 0.196; for “HMQNFLSITSKEKIDIGNFQLISFKFENNLYDYVISGNKSELLIFQEKTIENNNENIEKITSNF”: -2.54. Turning to “HMQNLETVEEIKELALNYLDKYQPSKKSLQVYLFRKAIDAQSNSVEKSEILKKIETVLTDLEEQGILNDAL”, the “soluble fraction (log2)” value was -0.135. Regarding “HMQNMVYVATKDIPAGGVIDQDSVSKTAISTSIDTSLYITDDDLGKIAVVNISQGQSVFSNMVGT”, the “soluble fraction (log2)” value stood at 0.656. In the case of “HMQNNITISKEIELRTGPDDTYPTLKKVTAGDNVEMLSKSDTWYEIKTNDSFVGWVPGWSIL”, the “soluble fraction (log2)” value was -0.0886. The same measure for “HMQNSYSVEDLALKAGLSVDTIRYYQGLDLIAPPQKNGRRAIYGDEHLSRLDEIKKLALEGFSLRQISLLK”: -0.739; for “HMQNYNLTQQEKKVLQLLVSGKSYKMIAAELNVAFDTVKSHITNIYSKLHVHSGTEAVSVAIRDKI”: -1.46. Regarding “HMQPDDELVRLLLIKIFNDKQLKVNPAVINYLLRRIDRSFESINNFVKKIDEFSLEKGRKITVNLVSGFF”, the “soluble fraction (log2)” value is -0.777.

Turning to “HMQPFTELTPREREILGHLAEGQSNKVIARHLDISDGTVKLHVKAILRKLGVHSRVEAAVMAVEHGIR”, the “soluble fraction (log2)” value was -2.11. Take “HMQPIEIQDRITKAFERSAALEAKNINVEVDGHTVKLTGTVHSLTEKEEARKAAFFAPGVTKVENHLIVDY”: the “soluble fraction (log2)” value is 0.0424.

On to “HMQPMIQIHTLANHAPVALHIKRNTQRNIIIRARDASSLNLSIPKWFSPAQLQNWLRDNEATLIRILQQAP”, for which the “soluble fraction (log2)” value was -3.6. Next, “HMQPPKIISTVEPYREVVREYLKQGVEMTAIWQRLRENYQYTGSYSSVRRFVAQLEPRQPEA”: -1.9; “HMQPQLFRVIADDGLNIRSGPGPEYPPVAPMLRKGTQVELLQAGDRWSKVEVVGSTDVEGWVNQRYLQAV”: -0.169; “HMQPSQTLSATVEFPDRLDRFLALAFPEVSRARFQRLIAEGHVSVEGVPATEIRHKLKAGQRVEAVIPPA”: -0.276. Next, “HMQPTVEGLMKALETMTFNERTALALHYGLTGRQPMTFMAIGRYLGISDGRAEALVNSAIRKLR”: -1.8. The same measure for “HMQQGVEQLPVTEVGGRLMHYYEVQPKETLYSLSHKLGVGQEYIEQHNPSVRGGLRAFMTLYFPAA”: -0.00835; for “HMQQIAVDLSEFKPRLMRDMSSMLAGLYTHDLDLSSLDFSKVANFTFMFRGAIITGTLKMPKI”: 0.202.
